Results: patent US20260159603A1 (BEAM THERAPEUTICS, published 2026)
Changes are numbered by the printed parent chain.

T1: biotinylated human CD5-HIS (human, UniProt P06127 25-372, biotinylated)
T1 construct: Loaded onto streptavidin Octet pins; also called huCD5; SA-human CD5; not shown: HIS tag
T1 sequence (looked up): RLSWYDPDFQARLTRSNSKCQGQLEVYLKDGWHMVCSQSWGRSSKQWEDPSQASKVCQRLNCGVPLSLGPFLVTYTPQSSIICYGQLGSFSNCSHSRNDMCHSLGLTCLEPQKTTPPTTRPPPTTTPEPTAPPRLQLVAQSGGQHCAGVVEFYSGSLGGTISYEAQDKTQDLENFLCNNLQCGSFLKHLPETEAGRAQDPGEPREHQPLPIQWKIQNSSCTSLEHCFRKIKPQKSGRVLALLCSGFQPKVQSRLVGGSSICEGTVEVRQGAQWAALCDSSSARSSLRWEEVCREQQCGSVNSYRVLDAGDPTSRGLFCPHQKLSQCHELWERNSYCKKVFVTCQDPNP

T2: human CD5 on transfected HEK293T cells (human, UniProt P06127 25-495)
T2 construct: whole, on cells; also called huCD5; Human CD5 Cells
T2 sequence (looked up): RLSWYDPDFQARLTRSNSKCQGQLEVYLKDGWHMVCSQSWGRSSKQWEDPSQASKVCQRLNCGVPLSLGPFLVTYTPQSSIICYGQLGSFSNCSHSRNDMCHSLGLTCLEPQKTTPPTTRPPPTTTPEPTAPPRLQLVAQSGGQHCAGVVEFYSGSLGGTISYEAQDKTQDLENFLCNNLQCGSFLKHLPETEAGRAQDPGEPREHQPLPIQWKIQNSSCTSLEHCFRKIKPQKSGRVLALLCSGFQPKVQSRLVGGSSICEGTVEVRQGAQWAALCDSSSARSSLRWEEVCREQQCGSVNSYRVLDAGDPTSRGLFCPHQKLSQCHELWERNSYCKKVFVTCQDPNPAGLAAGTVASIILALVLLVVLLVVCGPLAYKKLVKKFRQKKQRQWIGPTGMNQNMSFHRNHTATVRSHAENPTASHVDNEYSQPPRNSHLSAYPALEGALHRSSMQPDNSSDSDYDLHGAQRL

B1: ABTx321 (VHH)
VHH: QLQLVESGGGLVQPGESLRLSCVVSGDIFSFVGWGWYRQAPGKQREVVAQISTGGLTNYADSVKGRFAISRDNAKRTVYLQMNSLKFEDTAVYYCNVPGHPWGQGTQVTVSS
notes: VHH in periplasmic extract of the phage display clone; also called clone 1043; not shown: c-myc tag of the phagemid construct (detected with anti-c-myc 9E10)
B2: ABTx328 (VHH)
VHH: B1 VHH with L2V, V32I, V47L, S52N, N58D, A68T, V97F, P101S
notes: VHH in periplasmic extract of the phage display clone; also called clone 1050; not shown: c-myc tag of the phagemid construct (detected with anti-c-myc 9E10)
B3: ABTx319 (VHH)
VHH: QVQLVESGGGLVQPGGSLRLSCAASGFTFSMYSMSWVRQAPGKRLEWVSSISTGARDTAYADSVKGRFTISRDNADNTLYLHMNNLKPEDTAVYYCANGDLRYGPDGYDYRGQGTQVTVSS
notes: VHH in periplasmic extract of the phage display clone; also called clone 917; not shown: c-myc tag of the phagemid construct (detected with anti-c-myc 9E10)
B4: ABTx323 (VHH)
VHH: QVQLQESGGGLVQAGGSLRLSCATSGITSSINVIGWYRQAPGKQRELVALVNSGGQTHYADSVKGRFTISRDNAKNTVFLQMNSLKPEDTAEYYCHGRYGIDNYWGEGTQVTVSS
notes: VHH in periplasmic extract of the phage display clone; also called clone 155; not shown: c-myc tag of the phagemid construct (detected with anti-c-myc 9E10)
B5: ABTx326 (VHH)
VHH: QVQLVESGGGLVQPGGSLRLSCAASGRTFINYAAGWFRQAPGKEREFVARISRSGGRTDYADSVKGRFTISRDNAKSTVYLQMNSLRPEDTAVYYCAEATVWEFTDGADQYDYWGQGTQVTVSS
notes: VHH in periplasmic extract of the phage display clone; also called clone 199; not shown: c-myc tag of the phagemid construct (detected with anti-c-myc 9E10)
B6: ABTx320 (VHH)
VHH: QVQLVESGGGLVQAGGSLRLSCAASGPAFSSSGMGWFRQAPGKAREFVASMDWTGGSTYYGDSVKGRFTVSRDNAKMTVHLQMNSLRPEDTAVYYCARGTSGVAAVNLRGFFSWGPGTQVTVSS
notes: VHH in periplasmic extract of the phage display clone; also called clone 157; not shown: c-myc tag of the phagemid construct (detected with anti-c-myc 9E10)
B7: ABTx324 (VHH)
VHH: QVQLVESGGGLVQPGGSVRLSCATSGSIFSTNVMGWYRQAPGKEREFVALIRGGGSTHYADSVKGRFIISRENAKTTVYLQMNGLKPEDTAVYYCVIWLGSPGAMSDYWGQGTQVTVSS
notes: VHH in periplasmic extract of the phage display clone; also called clone 550; not shown: c-myc tag of the phagemid construct (detected with anti-c-myc 9E10)
B8: ABTx329 (VHH)
VHH: QLQLVESGGGLVQPGESLRLSCAASGFSFSRVGMNWYRQAPGKERELVASISSDGSRTNYAHFVKGRFTISRDNVKNMVYLQMNSLKLEDTAVYYCNVPGNSWGQGTQVTVSS
notes: VHH in periplasmic extract of the phage display clone; also called clone 1091; not shown: c-myc tag of the phagemid construct (detected with anti-c-myc 9E10)
B9: ABTx325 (VHH)
VHH: QVQLVESGGGLVQPGGSLRLSCAASGSDASTNNMAWYRQAPGKEREFVALIRTGGSTHVADSMKGRFTISRENAKNTVYLQMNSLKPEDTAVYYCVIWTGSPGALSDYWGQGTQVTVSS
notes: VHH in periplasmic extract of the phage display clone; also called clone 420; not shown: c-myc tag of the phagemid construct (detected with anti-c-myc 9E10)
B10: ABTx318 (VHH)
VHH: QVQLQESGGGSVQAGGSLRLSCAASGRAFSAYAMGWFRQAPGKEREFVAAINWNGDTALRWNGFATRYADSVKGRFTISRVIAKNTVNLQMNSLKPEDTAVYYCAADTVVSGSYYLAARAEDYEYWGQGTQVTVSS
notes: VHH in periplasmic extract of the phage display clone; also called clone 333; not shown: c-myc tag of the phagemid construct (detected with anti-c-myc 9E10)
B11: ABTx327 (VHH)
VHH: QVQLVESGGGLVQPGGSLRLSCVASGGTFSTYGMGWFRQAPGKEREFVAVITGSGVGTQYADSVKDRFTISRENAKNTVYLQMNTLKLEDTAVYYCVSGHRPGWAVIRADAYEYWGQGTQVTVSS
notes: VHH in periplasmic extract of the phage display clone; also called clone 834; not shown: c-myc tag of the phagemid construct (detected with anti-c-myc 9E10)
B12: ABTx322 (VHH)
VHH: QLQLVESGGGLVQPGGSLRLSCAASGSDFLVDATTWFRQAPGNQREFVAIMDIGGVTEYADSVKGRFTISRDHTKNTVYLQMNSLKVEDTAVYYCNTRGLWGQGTLVTVSS
notes: VHH in periplasmic extract of the phage display clone; also called clone 660; not shown: c-myc tag of the phagemid construct (detected with anti-c-myc 9E10)

The binders below were run against T1, biotinylated human CD5-HIS (assay: BLI; KD on human CD5 divided by KD on cynomolgus CD5).
With B1 the “Hu/Cyno KD” value was 0.6. For B2, the “Hu/Cyno KD” value was 0.4. B3 was tested, and the “Hu/Cyno KD” value was 0.8. In the case of B4, the “Hu/Cyno KD” value is reported as 0.9. In the case of B5, the “Hu/Cyno KD” value is reported as 0.9. For B6, the “Hu/Cyno KD” value was 1.1. B7 was tested, and the “Hu/Cyno KD” value was 0.7. B8 was tested, and the “Hu/Cyno KD” value was 0.4. For B9, the “Hu/Cyno KD” value was 0.8. With B10 the “Hu/Cyno KD” value was 1. B11 was tested, and the “Hu/Cyno KD” value was 0.3. B12 was tested, and the “Hu/Cyno KD” value was 0.9.

These binders were tested against T1, biotinylated human CD5-HIS (assay: BLI (Octet), biotinylated CD5-HIS on streptavidin pins).
B1 was tested, and the Kd was 0.23 nM, the koff was 5.2e-05 s⁻¹ and the kon was 220000 M⁻¹ s⁻¹. B2 gave a Kd of 0.36 nM, a koff of 9.2e-05 s⁻¹ and a kon of 260000 M⁻¹ s⁻¹. Work on B3 yielded a Kd of 1.8 nM, a koff of 0.00013 s⁻¹ and a kon of 72000 M⁻¹ s⁻¹. For B4, the Kd was 1.2 nM, the koff was 0.00011 s⁻¹ and the kon was 93000 M⁻¹ s⁻¹. With B5 the Kd was 2 nM, the koff was 0.00015 s⁻¹ and the kon was 74000 M⁻¹ s⁻¹. B6 was tested, and the Kd was 2.8 nM, the koff was 0.00019 s⁻¹ and the kon was 69000 M⁻¹ s⁻¹. B7 gave a Kd of 1.7 nM, a koff of 0.00017 s⁻¹ and a kon of 99000 M⁻¹ s⁻¹. Work on B8 yielded a Kd of 0.69 nM, a koff of 9.3e-05 s⁻¹ and a kon of 130000 M⁻¹ s⁻¹. B9 gave a Kd of 1.5 nM, a koff of 0.00013 s⁻¹ and a kon of 90000 M⁻¹ s⁻¹. In the case of B10, the Kd is reported as 2.5 nM, the koff is reported as 0.00016 s⁻¹ and the kon is reported as 65000 M⁻¹ s⁻¹. With B11 the Kd was 0.22 nM, the koff was 3.6e-05 s⁻¹ and the kon was 160000 M⁻¹ s⁻¹. B12 was tested, and the Kd was 1 nM, the koff was 0.0001 s⁻¹ and the kon was 95000 M⁻¹ s⁻¹.

The binders below were run against T3, biotinylated cynomolgus CD5-HIS (cynomolgus) in the same assay as above.
T3 construct: Loaded onto streptavidin Octet pins; also called CynoCD5; SA-Cyno CD5
In the case of B1, the Kd is reported as 0.37 nM, the koff is reported as 8.8e-05 s⁻¹ and the kon is reported as 240000 M⁻¹ s⁻¹. With B2 the Kd was 0.93 nM, the koff was 0.00018 s⁻¹ and the kon was 190000 M⁻¹ s⁻¹. B3 gave a Kd of 2.2 nM, a koff of 0.0002 s⁻¹ and a kon of 94000 M⁻¹ s⁻¹. For B4, the Kd was 1.3 nM, the koff was 0.00012 s⁻¹ and the kon was 89000 M⁻¹ s⁻¹. In the case of B5, the Kd is reported as 2.2 nM, the koff is reported as 0.00015 s⁻¹ and the kon is reported as 68000 M⁻¹ s⁻¹. Work on B6 yielded a Kd of 2.6 nM, a koff of 0.0002 s⁻¹ and a kon of 76000 M⁻¹ s⁻¹. In the case of B7, the Kd is reported as 2.3 nM, the koff is reported as 0.00016 s⁻¹ and the kon is reported as 71000 M⁻¹ s⁻¹. B8 gave a Kd of 1.6 nM, a koff of 0.00017 s⁻¹ and a kon of 110000 M⁻¹ s⁻¹. B9 gave a Kd of 1.8 nM, a koff of 0.00013 s⁻¹ and a kon of 68000 M⁻¹ s⁻¹. Work on B10 yielded a Kd of 2.4 nM, a koff of 0.00022 s⁻¹ and a kon of 91000 M⁻¹ s⁻¹. B11 was tested, and the Kd was 0.78 nM, the koff was 0.00011 s⁻¹ and the kon was 140000 M⁻¹ s⁻¹. B12 showed a Kd of 1.1 nM, a koff of 0.00011 s⁻¹ and a kon of 97000 M⁻¹ s⁻¹.

The binders below were run against T2, human CD5 on transfected HEK293T cells (assay: flow cytometry, periplasmic extract on transfected HEK293T cells).
B1 was tested, and the “percent of cells showing binding” value was 84.9%. With B2 the “percent of cells showing binding” value was 45.4%. With B3 the “percent of cells showing binding” value was 74.8%. B4 was tested, and the “percent of cells showing binding” value was 64.1%. B5 was tested, and the “percent of cells showing binding” value was 41.6%. B6 was tested, and the “percent of cells showing binding” value was 80.3%. In the case of B7, the “percent of cells showing binding” value is reported as 73.3%. For B8, the “percent of cells showing binding” value was 72%. In the case of B9, the “percent of cells showing binding” value is reported as 77.4%. In the case of B10, the “percent of cells showing binding” value is reported as 84.9%. For B11, the “percent of cells showing binding” value was 68%. In the case of B12, the “percent of cells showing binding” value is reported as 70.1%.

Each binder was assayed against T4, cynomolgus CD5 on transfected HEK293T cells (cynomolgus (Table 8B); rhesus macaque …) in the same assay as above.
T4 construct: whole, on cells; also called Cynomolgus CD5 Cells; rhesus macaque (Macaca mulatta) CD5
In the case of B1, the “percent of cells showing binding” value is reported as 87.7%. With B2 the “percent of cells showing binding” value was 40.7%. With B3 the “percent of cells showing binding” value was 62.6%. In the case of B4, the “percent of cells showing binding” value is reported as 54.6%. For B5, the “percent of cells showing binding” value was 58.4%. For B6, the “percent of cells showing binding” value was 77.7%. In the case of B7, the “percent of cells showing binding” value is reported as 73.2%. With B8 the “percent of cells showing binding” value was 66.5%. B9 was tested, and the “percent of cells showing binding” value was 80%. For B10, the “percent of cells showing binding” value was 67.1%. With B11 the “percent of cells showing binding” value was 71.7%. With B12 the “percent of cells showing binding” value was 82.3%.

These binders were tested against T1, biotinylated human CD5-HIS (assay: BLI (Octet), biotinylated CD5-HIS on streptavidin pins, periplasmic extract, off-rate).
Work on B1 yielded a koff of 0.0077 s⁻¹. B2 was tested, and the koff was 7.04e-05 s⁻¹. Work on B3 yielded a koff of 0.0116 s⁻¹. B4 gave a koff of 0.000138 s⁻¹. B5 showed a koff of 0.000825 s⁻¹. Binder B6 has a koff of 0.00137 s⁻¹. B7 gave a koff of 0.00271 s⁻¹. For B8, the koff was 0.000372 s⁻¹. B9 showed a koff of 0.0027 s⁻¹. Work on B10 yielded a koff of 0.0138 s⁻¹. In the case of B11, the koff is reported as 0.0195 s⁻¹. In the case of B12, the koff is reported as 0.000331 s⁻¹.

Each binder was assayed against T3, biotinylated cynomolgus CD5-HIS in the same assay as above.
Work on B1 yielded a koff of 0.0136 s⁻¹. In the case of B2, the koff is reported as 6.34e-05 s⁻¹. B3 was tested, and the koff was 0.0531 s⁻¹. B4 gave a koff of 0.000347 s⁻¹. B5 was tested, and the koff was 0.00415 s⁻¹. B6 was tested, and the koff was 0.000757 s⁻¹. In the case of B7, the koff is reported as 0.0177 s⁻¹. Binder B8 has a koff of 0.000488 s⁻¹. B9 gave a koff of 0.0143 s⁻¹. Binder B10 has a koff of 0.0546 s⁻¹. Binder B11 has a koff of 0.0329 s⁻¹. In the case of B12, the koff is reported as 0.0028 s⁻¹.
